{"source": "paper PMC4220643", "about": "“Localization of the CyanoP binding site on photosystem II by surface plasmon resonance spectroscopy” (Frontiers in Plant Science, 2014)", "binders": {"B1": {"name": "Im7-D2 (C-terminal domain of D2 fused to Im7) (domain or fragment)", "chain": "not shown", "notes": "luminal C-terminal domain of D2 (PsbD) of Thermosynechococcus elongatus; source: cell-free expression (RTS100, 5Prime), purified on the SPR sensor surface via DNase E7; not shown: Im7 (immunity protein 7, with GGSG linker), N-terminal, kept"}, "B2": {"name": "Im7-D1pep (C-terminal peptide of processed D1 fused to Im7) (domain or fragment, Thermosynechococcus elongatus, UniProt P0A444 332-344, looked up)", "chain": "HERNAHNFPLDLA", "notes": "C-terminal peptide of processed D1, D1 (PsbA1) of Thermosynechococcus elongatus, residues H332-A344; also called D1 peptide; the 13 C-terminal residues of mature D1; source: cell-free expression (RTS100, 5Prime), purified on the SPR sensor surface via DNase E7; not shown: Im7 (immunity protein 7, with GGSG linker), N-terminal, kept"}, "B3": {"name": "Im7-D1a (D1 a-loop fused to Im7) (domain or fragment)", "chain": "not shown", "notes": "D1 a-loop, D1 (PsbA1) of Thermosynechococcus elongatus, residues A54-Q113; source: cell-free expression (RTS100, 5Prime), purified on the SPR sensor surface via DNase E7; not shown: Im7 (immunity protein 7, with GGSG linker), N-terminal, kept"}, "B4": {"name": "Im7 fusion protein of PsbU (natural protein, Thermosynechococcus elongatus, UniProt Q9F1L5 31-134, looked up)", "chain": "ATASTEEELVNVVDEKLGTAYGEKIDLNNTNIAAFIQYRGLYPTLAKLIVKNAPYESVEDVLNIPGLTERQKQILRENLEHFTVTEVETALVEGGDRYNNGLYK", "notes": "PsbU of Thermosynechococcus elongatus, without signal peptide; PsbU is described only as an Im7 fusion protein; source: E. coli Overexpress C43, purified"}, "B5": {"name": "Im7-mD1 (C-terminal D1 domain in its processed form fused to Im7) (domain or fragment)", "chain": "not shown"}, "B6": {"name": "Im7-pD1 (C-terminal D1 domain with precursor peptide fused to Im7) (domain or fragment)", "chain": "not shown"}, "B7": {"name": "CyanoP (natural protein, Thermosynechococcus elongatus, UniProt Q8DH84 20-183, looked up)", "chain": "CSATSGLQAYVDSYDGYEFLYPRGWVQVQVEDPVDVVFHDIIETTENVSVVVNTVASTKSLEELGSPEEVGDRLLRNIIAPSESGRSSALIAATSQKADDKTYYILEYAVTLPGDGNTAQQRHNLSSIAVSRGKVYTLSVSAPEERWPKVEDQFKTIVSSFTVY", "notes": "CyanoP of Thermosynechococcus elongatus, without signal peptide; Expression vector derived from pIVEX2.4d; tags and purification are told only in the supplementary material; also called recombinant CyanoP; cyanobacterial homolog of higher plant PsbP; source: E. coli Overexpress C43, purified"}, "B8": {"name": "Im7-CP43 (e-loop of CP43 fused to Im7) (domain or fragment)", "chain": "not shown", "notes": "luminal e-loop of CP43 (PsbC) of Thermosynechococcus elongatus; source: cell-free expression (RTS100, 5Prime), purified on the SPR sensor surface via DNase E7; not shown: Im7 (immunity protein 7, with GGSG linker), N-terminal, kept"}}, "conditions_in_all_cases": "both partners purified", "key": {"PsbO": {"target": "T1, PsbO (Thermosynechococcus elongatus, UniProt P0A431 27-272)", "T1 construct": "PsbO of Thermosynechococcus elongatus, without signal peptide; Expression vector derived from pIVEX2.4d; tags and purification are told only in the supplementary material; also called extrinsic PSII subunit PsbO; source: E. coli Overexpress C43, purified", "T1 sequence (looked up)": "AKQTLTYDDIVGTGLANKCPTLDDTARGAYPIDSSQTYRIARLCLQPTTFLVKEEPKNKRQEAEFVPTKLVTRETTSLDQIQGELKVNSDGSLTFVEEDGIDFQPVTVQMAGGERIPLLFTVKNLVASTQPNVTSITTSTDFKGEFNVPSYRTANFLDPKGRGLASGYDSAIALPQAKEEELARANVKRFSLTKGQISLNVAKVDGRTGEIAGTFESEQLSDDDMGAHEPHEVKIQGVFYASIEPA", "experiment": "SPR; Biacore3000, CM5 chip with covalently bound DNase E7; Im7-tagged luminal PSII domain captured from the cell-free reaction mixture (on-chip purification); reference surface with Im7, both surfaces saturated with purified Im7; soluble protein injected as analyte in triplicate; steady state responses fitted to a one site binding isotherm"}, "CyanoP": {"target": "B7", "experiment": "SPR; Biacore3000, CM5 chip with covalently bound DNase E7; Im7-tagged luminal PSII domain captured from the cell-free reaction mixture (on-chip purification); reference surface with Im7, both surfaces saturated with purified Im7; soluble protein injected as analyte in triplicate; steady state responses fitted to a one site binding isotherm"}, "PsbV [1]": {"target": "T2, PsbV (Thermosynechococcus elongatus, UniProt P0A386 27-163)", "T2 construct": "PsbV of Thermosynechococcus elongatus, without signal peptide; details of expression and purification are in the supplementary material; also called extrinsic PSII subunit PsbV; source: expressed after a published protocol (Andrews et al., 2005), purified as strep-tagged protein", "T2 sequence (looked up)": "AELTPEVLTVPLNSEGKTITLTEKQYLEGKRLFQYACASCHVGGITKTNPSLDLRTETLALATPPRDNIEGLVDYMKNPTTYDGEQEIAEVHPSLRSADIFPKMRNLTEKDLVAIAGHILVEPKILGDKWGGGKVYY", "experiment": "SPR; Biacore3000, CM5 chip coated with DNase E7; extrinsic proteins as Im7 fusion proteins overexpressed in E. coli; who was immobilised is not told in the main text; details in the supplementary material"}, "[2]": {"target": "T3, Im7-CP47 (e-loop of CP47 fused to Im7) (Thermosynechococcus elongatus, UniProt Q8DIQ1 255-450)", "T3 construct": "luminal e-loop of CP47 (PsbB) of Thermosynechococcus elongatus; source: cell-free expression (RTS100, 5Prime), purified on the SPR sensor surface via DNase E7; not shown: Im7 (immunity protein 7, with GGSG linker), N-terminal, kept", "T3 sequence (Q8DIQ1 255-450)": "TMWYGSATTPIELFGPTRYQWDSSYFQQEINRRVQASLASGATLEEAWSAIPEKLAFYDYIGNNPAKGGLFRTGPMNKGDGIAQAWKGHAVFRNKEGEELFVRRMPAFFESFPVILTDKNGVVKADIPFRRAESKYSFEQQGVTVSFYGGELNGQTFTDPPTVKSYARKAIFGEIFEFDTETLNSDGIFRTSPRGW", "experiment": "SPR; Biacore3000, CM5 chip with covalently bound DNase E7; Im7-tagged luminal PSII domain captured from the cell-free reaction mixture (on-chip purification); reference surface with Im7, both surfaces saturated with purified Im7; soluble protein injected as analyte in triplicate; steady state responses fitted to a one site binding isotherm"}, "PsbV [3]": {"target": "T2, PsbV", "experiment": "SPR; Biacore3000, CM5 chip with covalently bound DNase E7; Im7-tagged luminal PSII domain captured from the cell-free reaction mixture (on-chip purification); reference surface with Im7, both surfaces saturated with purified Im7; soluble protein injected as analyte in triplicate; steady state responses fitted to a one site binding isotherm"}}, "data": [{"binder": "B1", "values": [{"measurement": "Kd", "setting": "PsbO", "value": "~50", "unit": "µM"}, {"measurement": "Kd", "setting": "CyanoP", "value": 5.2, "unit": "µM"}]}, {"binder": "B2", "values": [{"measurement": "Kd", "setting": "CyanoP", "value": "100 to 150", "unit": "µM"}]}, {"binder": "B3", "values": [{"measurement": "Kd", "setting": "PsbO", "value": "50 to 100", "unit": "µM"}, {"measurement": "Kd", "setting": "CyanoP", "value": 16.2, "unit": "µM"}]}, {"binder": "B4", "values": [{"measurement": "Kd", "setting": "PsbV [1]", "value": 146, "unit": "µM"}]}, {"binder": "B5", "values": [{"measurement": "Kd", "setting": "CyanoP", "value": 74, "unit": "µM"}]}, {"binder": "B6", "values": [{"measurement": "Kd", "setting": "CyanoP", "value": 76, "unit": "µM"}]}, {"binder": "B7", "values": [{"measurement": "Kd", "setting": "[2]", "value": 91, "unit": "µM"}]}, {"binder": "B8", "values": [{"measurement": "Kd", "setting": "PsbV [3]", "value": 26, "unit": "µM"}, {"measurement": "Kd", "setting": "PsbO", "value": "~50", "unit": "µM"}, {"measurement": "Kd", "setting": "CyanoP", "value": 55, "unit": "µM"}]}]}
